The experiment has as its target T1, recombinant human (rh) CD16A protein conjugated with APC fluorophore (human, UniProt P08637 17-208, APC fluorophore conjugate).
T1 construct: also called APC-tagged rhCD16A
Description: 'sandwich' flow cytometry: NB-EBC1 cells incubated with cSN, then stained with APC-conjugated rhCD16A. The protocol:
FIGS. 3A-E. Production and binding characterization of BICEs. (FIG. 3A) Flow cytometry histograms showing His-tag cell surface expression in neuroblastoma cells incubated with concentrated supernatants (cSNs) from CAR constructs (CAR.GPC2, CAR.GPC2-BiCE.GD2 or CAR.GPC2-BICE.CD19) or 1×PBS and then stained with phycoerythrin (PE)-tagged anti-His-tag antibody. Neuroblastoma cells with high (NB-EBC1 and SMS-SAN) and low (SY5Y) GD2 expression were selected. Leukemia (NALM6) cells with high CD19 were utilized as controls. (FIG. 3B) Concentration-dependent binding of CAR.GPC2-BICE.GD2 cSN in GD2-high NB-EBC1 cells. (FIG. 3C) Binding competition assay between FDA-approved anti-GD2 antibody dinutuximab and CAR.GPC2-BiCE.GD2 cSNs. (FIG. 3D) Graphical scheme of the “sandwich” binding assays where GD2-expressing neuroblastoma cells were incubated with bicistronic vector cSNs and then stained with recombinant human (rh) CD16A protein previously conjugated with APC fluorophore. (FIG. 3E) Flow cytometry histograms showing CD16A sdAb APC staining in GD2-positive cells incubated with GPC2.CAR-GD2.BiCE cSN but not with control vector cSN (GPC2.CAR-CD19.BiCE).
Next, to study whether BiCEs might produce a molecular synapsis between GD2-expressing cells and CD16a, a “sandwich” binding assay was developed as illustrated in FIG. 3D. […]

T1 sequence (P08637 17-208 limits assumed): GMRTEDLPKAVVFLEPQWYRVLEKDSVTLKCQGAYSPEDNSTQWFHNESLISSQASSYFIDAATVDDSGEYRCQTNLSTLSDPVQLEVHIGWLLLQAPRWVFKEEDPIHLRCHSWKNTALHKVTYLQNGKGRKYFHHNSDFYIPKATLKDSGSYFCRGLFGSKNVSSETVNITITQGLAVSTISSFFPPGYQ

B1: GD2-targeted bispecific innate immune cell engager (GD2 scFv 14g2a linked to CD16A single-domain antibody sdA1, His-tagged) (bispecific antibody)
chain: DILLTQTPLSLPVSLGDQASISCRSSQSLVHRNGNTYLHWYLQKPGQSPKLLIHKVSNRFSGVPDRFSGSGSGTDFTLKISRVEAEDLGVYFCSQSTHVPPLTFGAGTKLELKGSTSGSGKPGSGEGSTKGEVKLQQSGPSLVEPGASVMISCKASGSSFTGYNMNWVRQNIGKSLEWIGAIDPYYGGTSYNQKFKGRATLTVDKSSSTAYMHLKSLTSEDSAVYYCVSGMEYWGQGTSVTVSSGSTSGSGKPGSGEGSTKGEVQLVESGGGLVQPGGSLRLSCAASGFTFSNYGMSWVRQAPGKGLEWIGSIYYSGSTNYNPSLKSLVTISRDNSKNTLYLQMNSLRAEDTATYYCARESIDYWGQGTLVTVSSHHHHHH
notes: Used as concentrated supernatant (cSN) of HEK 293T cells transfected with the bicistronic GPC2.CAR-GD2.BiCE vector; also called GD2 BiCE; GD2.BiCE
In the case of B1, the binding result was “binds”.
